Where two headings read alike, the source gives them in different places. Residues, ends and D or L forms follow the SMILES beside them. *: point of attachment. Cbz = O=C(OCc1ccccc1)*
B2: endogenous MFSD7C of mouse bone marrow-derived macrophages (other, UniProt Q91X85 1-551, looked up)
chain: MVNESLNQEESNDRPAPESEFQMDTSYSTQPSGSIHPSVSGHPSVSGHPSVSGHPSVSIHPSVSIDPSVSVRPSSSALPSTLAQPSGLTHHSSLVREDSVIKVSKRRWVVVLVFSCYSLCNAFQWIQYGSINNIFMNFYGVSAFAIDWLSMCYMLTYIPLLLPVAWMLEKFGLRTIAITGSALNCLGAWVKLGSLEPHLFPVTMVGQVICSVAQVFILGMPSRIASVWFGADEVSTACSVAVFGNQLGIAIGFLVPPVLVPNIKDPEKLAYHISIMFYIIGGVATFLFILVIIVFKEKPKHPPSRAQSLSYALATTDASYLSSIVRLFKNLNFVLLVITYGLNAGAFYALSTLLNRMVILHFPGEEVNAGRIGLTIVIAGMFGAMISGIWLDKSKTYKETTLVVYIMTLVGMVVYTFTLNLNHLWVVFITAGTLGFFMTGYLPLGFEFAVELTYPESEGVSSGLLNVSAQVFGIVFTISQGQIIDNHGTMFGNIFLCVFLALGSALTAFIKSDLRRQRANKDAPETKVQEEEEEEEGSNTSKVPVVSEAHL

Tests used:
MFSD7C and SERCA2b = molecular target: T1, MFSD7C and SERCA2b (Mus musculus, UniProt Q91X85); assay: Co-IP of MFSD7C and SERCA2b in transfected 293T cells; type: cell-based, murine; conditions: 293T cells in the presence of MG132; none co-precipitated without
T1 construct: expressed in transfected cells; called 293T
Procedure: (§1) FIGS. 5A-5F show MFSD7C and heme regulate thermogenesis through SERCA2b in THP-1 cells. […] 30 hours later, MG132 was added into half of the cells and the other half was not treated. Another 35 hours later, some cells were treated with 40 μM heme for 1 hour before lysis. Cell lysates were immunoprecipitated with anti-FLAG antibody, and eluted, followed by anti-HA immunoprecipitation and elution. Total cell lysate and elute were subjected to Western blotting and probed with anti-SERCA2b or anti-MFSD7C antibodies. Shown are representative data from one of three experiments. […] 24 hrs later, cells were either not treated or treated with 10 μM MG132 for either 6 or 12 hours. The cells were lysed and subjected to FLAG pull-down and blotted with anti-MFSD7C, anti-SERCA2b and anti-ubiquitin antibodies. Shown are representative data from one of three experiments. […] Parental THP-1 cells were either not treated or treated with heme before lysis. Shown are representative data from one of four experiments. […] Shown are representative data from one of two experiments. […] Cells were washed and treated with 40 μM heme for one hour before flow cytometry. Representative FPT histograms from one of three experiments are shown. […] Shown are representative FPT histograms from one of three experiments. […]

SERCA2b = SERCA2b level and ubiquitination by pull-down and Western blotting in transfected 293T cells; type: cell-based, murine
Procedure: as §1

NTD of human MFSD7C = molecular target: T2, NTD of human MFSD7C (Homo sapiens, UniProt Q9UPI3); assay: Isothermal titration calorimetry of NTD binding to heme; conditions: ITC, 25° C., 3-site sequential binding model
T2 construct: Plasmid harboring GST-His-tag-SUMO-NTD (amino acids 1-84); GST-His-tag-SUMO (N, cleaved yes); made in house; host or cells: Escherichia coli Lemo21(DE3)
T2 sequence (Q9UPI3 1-84): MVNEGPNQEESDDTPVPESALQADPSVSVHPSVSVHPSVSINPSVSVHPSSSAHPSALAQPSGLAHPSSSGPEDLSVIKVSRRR

HP motif peptide = molecular target: T3, HP motif peptide (Homo sapiens, UniProt Q9UPI3); assay: Isothermal titration calorimetry of HP motif peptide binding to heme (one-site model); conditions: synthetic 14-amino acid HP motif peptide, one-site binding model
T3 construct: a synthetic 14-amino acid HP motif peptide; made in house; host or cells: chemical solid-phase synthesis (Koch Institute Biopolymers & Proteomics Core)

[1] = molecular target: endogenous human SERCA2b of THP-1 cells (human) (UniProt P16615); assay: cell-based or functional assay
Sequence of endogenous human SERCA2b of THP-1 cells (human) (P16615 whole entry): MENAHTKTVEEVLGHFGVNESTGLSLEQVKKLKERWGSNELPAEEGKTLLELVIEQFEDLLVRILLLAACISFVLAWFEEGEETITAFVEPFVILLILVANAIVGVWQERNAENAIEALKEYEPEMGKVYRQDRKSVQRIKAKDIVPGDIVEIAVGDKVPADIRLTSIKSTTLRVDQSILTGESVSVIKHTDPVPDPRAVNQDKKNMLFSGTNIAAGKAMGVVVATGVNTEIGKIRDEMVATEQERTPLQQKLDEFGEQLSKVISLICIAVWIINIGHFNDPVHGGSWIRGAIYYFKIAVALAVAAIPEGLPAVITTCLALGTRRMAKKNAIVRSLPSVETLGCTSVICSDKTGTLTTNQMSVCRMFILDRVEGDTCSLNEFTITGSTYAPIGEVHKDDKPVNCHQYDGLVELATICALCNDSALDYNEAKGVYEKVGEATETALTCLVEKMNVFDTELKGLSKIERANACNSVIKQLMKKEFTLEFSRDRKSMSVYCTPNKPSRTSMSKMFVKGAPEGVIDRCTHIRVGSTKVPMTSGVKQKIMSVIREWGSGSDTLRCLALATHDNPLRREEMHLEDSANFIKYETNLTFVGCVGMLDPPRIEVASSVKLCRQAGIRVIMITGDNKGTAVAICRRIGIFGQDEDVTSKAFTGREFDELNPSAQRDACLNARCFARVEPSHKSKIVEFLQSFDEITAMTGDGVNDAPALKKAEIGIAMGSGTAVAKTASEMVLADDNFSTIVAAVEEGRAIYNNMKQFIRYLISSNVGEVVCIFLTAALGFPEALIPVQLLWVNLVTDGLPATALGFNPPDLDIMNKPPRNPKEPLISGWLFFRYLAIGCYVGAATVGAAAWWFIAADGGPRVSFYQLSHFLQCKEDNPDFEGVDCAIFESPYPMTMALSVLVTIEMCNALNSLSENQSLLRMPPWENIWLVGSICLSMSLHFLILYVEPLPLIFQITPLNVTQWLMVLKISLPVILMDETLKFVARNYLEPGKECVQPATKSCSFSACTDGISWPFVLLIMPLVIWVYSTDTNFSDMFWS

HA-tagged murine MFSD7C [2] = molecular target: T4, HA-tagged murine MFSD7C (mouse, UniProt Q91X85 1-551); assay: co-IP and Western blot, co-transfected 293FT cells, without heme (less or very little with 10 or 40 µM heme)
T4 construct: Expressed by transfection in 293FT / HEK 293T cells; also called HA-MFSD7C; pCMV6-AN-3HA-MFSD7C; not shown: N-terminal HA tag from vector pCMV6-AN-3HA
T4 sequence (looked up): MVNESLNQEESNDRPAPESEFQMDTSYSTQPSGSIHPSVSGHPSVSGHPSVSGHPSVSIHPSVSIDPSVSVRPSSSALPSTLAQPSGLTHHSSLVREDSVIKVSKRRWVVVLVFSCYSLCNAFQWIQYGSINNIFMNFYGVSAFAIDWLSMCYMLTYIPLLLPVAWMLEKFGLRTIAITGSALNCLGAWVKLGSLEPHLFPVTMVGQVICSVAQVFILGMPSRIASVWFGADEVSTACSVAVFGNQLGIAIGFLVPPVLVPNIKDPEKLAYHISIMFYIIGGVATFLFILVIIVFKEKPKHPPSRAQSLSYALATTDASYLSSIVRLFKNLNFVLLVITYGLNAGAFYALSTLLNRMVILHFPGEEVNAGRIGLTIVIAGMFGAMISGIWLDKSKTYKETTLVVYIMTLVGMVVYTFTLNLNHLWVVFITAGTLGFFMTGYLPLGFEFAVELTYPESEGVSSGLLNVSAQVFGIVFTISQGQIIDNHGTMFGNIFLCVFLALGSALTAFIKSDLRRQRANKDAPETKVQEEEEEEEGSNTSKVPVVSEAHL
Procedure: (§2) Co-transfection and immunoprecipitation. For co-IP, HA-tagged MFSD7C was co-transfected with FLAG-tagged HMOX1 (Origene Catalog No. MR203944), CYC1, COX4I1, NDUFA4, ATP5h, ATP5c1 into 293FT cells using TransIT®-LT1 Transfection Reagent (Mirus). Thirty-six hours after transfection, the cells were lysed using cold Lysis Buffer containing 20 mM Tris-HCl (pH 7.4), 150 mM NaCl, 0.1% NP-40, 10% glycerol, proteinase inhibitor (Sigma Catalog No. 4693132001), and phosphatase inhibitors (Sigma Catalog No. 4906845001). The clear supernatants from the lysate were incubated with M2-magnetic beads conjugated with anti-FLAG antibody (Sigma Catalog No. M8823) for 2 hours at 4° C. Then the beads were washed twice and eluted by the 3× FLAG peptides (Sigma Catalog No. F4799).
(§3) To determine the effect of heme on MFSD7C interactions with ETC components, HMOX1 or SERCA2b, 293FT cells were transiently transfected with HA-tagged murine MFSD7C and FLAG-tagged murine CYC1, NDUFA4, COX4i1, ATP5h, ATP5c1, HMOX1 or SERCA2b. 35 hrs later, co-transfected cells were incubated with DMSO (vehicle) or 10 μM or 40 μM of heme for one hour before lysis. Cell lysates were precipitated with anti-HA antibody, eluted with HA peptide, further precipitated with anti-FLAG antibody, eluted with FLAG peptide, and then subjected to Western blotting with anti-HA and anti-FLAG antibodies. Cells were treated with proteasome inhibitor MG132 for co-IP between MFSD7C and SERCA2b.

[3] = molecular target: T5, endogenous mouse SERCA2b (ATP2a2) (mouse, UniProt O55143 1-1044); assay: co-IP of endogenous proteins, mouse bone marrow-derived macrophages
T5 construct: also called endogenous SERCA2b
T5 sequence (O55143 whole entry): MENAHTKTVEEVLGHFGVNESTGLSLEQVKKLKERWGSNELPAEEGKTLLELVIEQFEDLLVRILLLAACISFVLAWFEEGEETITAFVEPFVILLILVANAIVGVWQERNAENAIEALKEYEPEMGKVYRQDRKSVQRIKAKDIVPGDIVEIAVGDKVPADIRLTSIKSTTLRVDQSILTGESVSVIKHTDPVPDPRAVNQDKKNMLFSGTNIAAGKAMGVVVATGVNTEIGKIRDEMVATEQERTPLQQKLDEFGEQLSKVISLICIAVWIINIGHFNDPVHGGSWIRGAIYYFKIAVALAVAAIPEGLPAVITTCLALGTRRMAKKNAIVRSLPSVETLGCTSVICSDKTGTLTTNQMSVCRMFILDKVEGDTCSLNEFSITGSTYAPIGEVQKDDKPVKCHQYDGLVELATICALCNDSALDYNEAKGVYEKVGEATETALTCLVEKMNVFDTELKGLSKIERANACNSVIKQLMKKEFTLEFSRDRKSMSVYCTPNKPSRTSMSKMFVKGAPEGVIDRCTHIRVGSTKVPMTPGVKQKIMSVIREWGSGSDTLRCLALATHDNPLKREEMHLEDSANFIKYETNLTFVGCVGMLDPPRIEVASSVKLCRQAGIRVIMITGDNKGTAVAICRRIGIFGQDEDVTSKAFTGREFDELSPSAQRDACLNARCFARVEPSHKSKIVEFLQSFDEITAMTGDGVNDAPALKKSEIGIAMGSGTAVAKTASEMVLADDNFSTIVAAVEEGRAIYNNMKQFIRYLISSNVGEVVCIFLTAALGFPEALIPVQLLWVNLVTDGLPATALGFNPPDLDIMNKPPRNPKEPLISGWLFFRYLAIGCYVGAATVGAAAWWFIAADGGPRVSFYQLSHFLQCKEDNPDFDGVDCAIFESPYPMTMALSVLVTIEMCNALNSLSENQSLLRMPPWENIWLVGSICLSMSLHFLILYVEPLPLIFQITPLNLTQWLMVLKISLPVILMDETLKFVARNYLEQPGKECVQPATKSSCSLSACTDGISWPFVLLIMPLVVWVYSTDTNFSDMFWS

[4] = molecular target: B2; assay: co-IP of endogenous proteins, mouse bone marrow-derived macrophage lysate
HA-tagged murine MFSD7C [5] = molecular target: T4, HA-tagged murine MFSD7C; assay: co-IP and Western blot, co-transfected 293FT cells, with or without 10 or 40 µM heme
Procedure: as §2
as §3, with “Cells were treated with proteasome inhibitor MG132 for co-IP between MFSD7C and SERCA2b.” left out

With `CC(C)C[C@@H](C=O)NC(=O)[C@H](CC(C)C)NC(=O)[C@H](CC(C)C)NC(=O)OCc1ccccc1` [MG132] (Cbz-Leu-Leu-Leu-aldehyde) the “SERCA2b co-precipitated with MFSD7C” value (MFSD7C and SERCA2b) was “an appreciable level was co-precipitated with MFSD7C”, the “full-length and ubiquitinated SERCA2b precipitated” value (SERCA2b; 10 μM MG132 for 6 or 12 hours, longer treatment) was “more full-length and ubiquitinated SERCA2b was precipitated” and the “level of SERCA2b detected” value (SERCA2b; presence vs absence of MG132) was “significantly higher level of SERCA2b was detected”.

With `C=CC1=C(C)C2=Cc3c(C=C)c(C)c4[n]3[Fe][n]3c(c(C)c(CCC(=O)O)c3=CC3=NC(=C4)C(C)=C3CCC(=O)O)=CC1=N2` [heme] the Kd (NTD of human MFSD7C; two strong of three heme sites on NTD, read-out: KD, two strong binding sites) was about 1000 nM, the Kd (NTD of human MFSD7C; weaker of three heme sites on NTD, read-out: KD, one weaker site) was about 220000 nM and the Kd (HP motif peptide) was about 1000 nM.

Molecule “endogenous human MFSD7C of THP-1 cells (from UniProt Q9UPI3 1-526)” has a Pearson's correlation coefficient value (co-localization, THP-1 cells after 40 µM heme for 1 hour) [1] of 0.67 and a Pearson's correlation coefficient value (co-localization, confocal microscopy of THP-1 cells) [1] of 0.89.

B1: FLAG-tagged murine ATP5c1 (other, mouse, UniProt Q91VR2 26-298, looked up)
chain: ATLKDITRRLKSIKNIQKITKSMKMVAAAKYARAERELKPARVYGTGSLALYEKADIKAPEDKKKHLIIGVSSDRGLCGAIHSSVAKQMKNEVAALTAAGKEVMIVGVGEKIKGILYRTHSDQFLVSFKDVGRKPPTFGDASVIALELLNSGYEFDEGSIIFNQFKSVISYKTEEKPIFSLNTIATAETMSIYDDIDADVLQNYQEYNLANLIYYSLKESTTSEQSARMTAMDNASKNASDMIDKLTLTFNRTRQAVITKELIEIISGAAALD
notes: Complex V component; expressed by transfection; also called pCMV6-AC-DDK-ATP5c1; not shown: C-terminal FLAG (DDK) tag
B1: binds (HA-tagged murine MFSD7C [2]).

B2: binds [3].

B3: FLAG-tagged murine CYC1 (other, mouse, UniProt Q9D0M3 85-325, looked up)
chain: SDLELHPPSYPWSHRGLLSSLDHTSIRRGFQVYKQVCSSCHSMDYVAYRHLVGVCYTEEEAKALAEEVEVQDGPNDDGEMFMRPGKLSDYFPKPYPNPEAARAANNGALPPDLSYIVRARHGGEDYVFSLLTGYCEPPTGVSLREGLYFNPYFPGQAIGMAPPIYTEVLEYDDGTPATMSQVAKDVATFLRWASEPEHDHRKRMGLKMLLMMGLLLPLTYAMKRHKWSVLKSRKLAYRPPK
notes: Complex III component; expressed by transfection; also called pCMV6-AC-DDK-Cyc1; not shown: C-terminal FLAG (DDK) tag
B3: binds (HA-tagged murine MFSD7C [2]).

B4: endogenous HMOX1 of mouse bone marrow-derived macrophages (enzyme, UniProt P14901 1-289, looked up)
chain: MERPQPDSMPQDLSEALKEATKEVHIQAENAEFMKNFQKGQVSREGFKLVMASLYHIYTALEEEIERNKQNPVYAPLYFPEELHRRAALEQDMAFWYGPHWQEIIPCTPATQHYVKRLHEVGRTHPELLVAHAYTRYLGDLSGGQVLKKIAQKAMALPSSGEGLAFFTFPNIDSPTKFKQLYRARMNTLEMTPEVKHRVTEEAKTAFLLNIELFEELQVMLTEEHKDQSPSQMASLRQRPASLVQDTAPAETPRGKPQISTSSSQTPLLQWVLTLSFLLATVAVGIYAM
B4: binds [4].

B5: FLAG-tagged murine HMOX1 (heme oxygenase-1) (enzyme, mouse, UniProt P14901 1-289, looked up)
chain: MERPQPDSMPQDLSEALKEATKEVHIQAENAEFMKNFQKGQVSREGFKLVMASLYHIYTALEEEIERNKQNPVYAPLYFPEELHRRAALEQDMAFWYGPHWQEIIPCTPATQHYVKRLHEVGRTHPELLVAHAYTRYLGDLSGGQVLKKIAQKAMALPSSGEGLAFFTFPNIDSPTKFKQLYRARMNTLEMTPEVKHRVTEEAKTAFLLNIELFEELQVMLTEEHKDQSPSQMASLRQRPASLVQDTAPAETPRGKPQISTSSSQTPLLQWVLTLSFLLATVAVGIYAM
notes: Expressed by transfection; also called pCMV6-AC-DDK-HMOX1; not shown: C-terminal FLAG (DDK) tag
B5: binds (HA-tagged murine MFSD7C [5]).

B6: FLAG-tagged murine NDUFA4 (other, mouse, UniProt Q62425 1-82, looked up)
chain: MLRQILGQAKKHPSLIPLFVFIGAGGTGAALYVMRLALFNPDVSWDRKNNPEPWNKLGPNEQYKFYSVNVDYSKLKKEGPDF
notes: Complex IV component; expressed by transfection; also called pCMV6-AC-DDK-Ndufa4; not shown: C-terminal FLAG (DDK) tag
B6: binds (HA-tagged murine MFSD7C [2]).
